# According to the nanobody polyreactivity screen of Harvey et al. (2022):
# Assay: yeast display, Sf9 membrane polyspecificity reagent, FACS + sequencing; frameworks hold sequencing errors
# Outline: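 In a synthetic yeast display library (Saccharomyces cerevisiae BJ5465), nanobody expression was induced with galactose for 36–48 hours. FACS gates were set low and high (top ~1%) using anti-HA fluorescence for expression and streptavidin fluorescence for binding of the Sf9 membrane reagent. Each polyreactivity label is drawn from the gate of origin.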
row,Sequence,polyreactivity (PSR sort gate)
1,QVQLVESGGGIVQAGGSLRLSCAASGLNFGLYAMGWDRQAPGNERELVAAITWSGVSTSYADSVKGRFTISRDNAKNTVYLQMNSLKPEDTAVYYCNKDPGTLYGDMDSWGQGTQVTVSS,low polyreactivity
2,QVQLVESGGGIVQAGGSLRLSCAASGLSRGVNVMGLYRQAPGKERELVAAISGAGRTYYADSVKGRFTISRDNAKNTVFLQMNSLKPEDTAVYYCASVRRRLSLTYDYWGQGTQVTVSS,high polyreactivity
3,QVQLVESGGGIVQAGGSLRLSCAASGNIFPYYAMRWYRQERGKERELVASISRSGGSTYYADSVKGRFTISRDNAKNTVYLEMNSLKPEDTAVYYCNTLSRSWQMDYWGLGTQVTVSS,low polyreactivity
4,QVQLVESGGGIVQAGGSLRLSCAASGNIFSYYAMGWYRQAPGKERELVAAITYRSDSTYYADSVKGRFTISRDNAKNTVYLQMNSLKPEDTAVYYCATEPWYGWGFGYWGQGTQVTVSS,low polyreactivity
5,QVQLVESGGGIVQAGGSLRLSCAASGNTFHYYVMGWYRQAPGKERELVAAITYTGGSTYYADSVKGRFTISRDNAKNTVYLQMISLKPEDTAVYYCAAGFSPASQLDYWGQGTQVTVSS,low polyreactivity
6,QVQLVESGGGIVQAGGSLRLSCAASGRHFYTNAMGWYRQAPGKERELVATISGSVGNTYYEDSVKGRFTISRDNAKNTVYLQMNSLKPEDTAVYYCAKAYYTPYGVYVLHYYWGQGTQVTVSS,high polyreactivity
7,QVQLVESGGGIVQAGGSLRLSCAASGRIFKWNAMGWYRQAPGKERELVAAISTSRGNTYYADSVKGRFTSSRDYAKNTVYLLMNSLKPEDTAGYYCAATYPISLRQVGYWGQATQVTVSS,high polyreactivity
8,QVQLVESGGGIVQAGGSLRLSCAASGRIFLSYAMGWYRQAPGKERELVAAISRNGGSTYYADSVKGRFTISRDNGKNTVYLPMNSLKPEDTAVYYCAAGGDYWGQGTQVTVSS,high polyreactivity
9,QVQLVESGGGIVQAGGSLRLSCAASGRIFSFNTMVSYRQAPRKERELVAAITSSSARTYYADSVKGRFTISRDNAKNTVYLQMNSLKPEDTAVYYCATRDWVGSVRMGYWGQGTQVTVSS,high polyreactivity
10,QVQLVESGGGIVQAGGSLRLSCAASGRIFSGNGMGWYRQAPGKEREFVAAIRFSSGSTYYADSVKGRFTISRDNAKNTVYLQMNSLKPEDTAVYYCARPSIPSRYDYWGQGTQVTVSS,high polyreactivity
11,QVQLVESGGGIVQAGGSLRLSCAASGRIFVRYAMGWYRQAPGKERELVAAISKSGGSTYYADSVKGRFTISRENAKNTVYLQMYSLKPEDTAVYYCNALVRRRPGYIRYDYWGQGTQVTVSS,low polyreactivity
12,QVQLVESGGGIVQAGGSLRLSCAASGRIFYRYDMGWYSQARGKERELVAAINDGGSTYYADSVKGRFTISRDNAKNTVYLQMNSLKPEDTAVYYCKVVNEHQSDFVVPFDYNHWGQGTQVTVSS,low polyreactivity
13,QVQLVESGGGIVQAGGSLRLSCAASGRIFYSYAMGWYRQAPGKERELVATISSGGSTNYADSVKGRFTISRDNAKNTVYLQMNSLKPEDTAVYYCGRQSLRYSYVSRDYWGQGSQVTVSS,low polyreactivity
14,QVQLVESGGGIVQAGGSLRLSCAASGRIIRYYAMGWYRQAPGKERELVAAITRGGSTNYADSVKGRFTISRDNAKNTVYLLMNSLKPEDTAVYYCATRQSWYPRWMDYWGQGTQVTVSS,high polyreactivity
15,QVQLVESGGGIVQAGGSLRLSCAASGRIIVNYAMGWYRQAPGKERELVAAISYSGGGTYYADSVKGRFTISRDNAKNTVYLHMNSLKPEDTAVYYCATVRRDDRYNYWGQGNQVTVSS,low polyreactivity
16,QVQLVESGGGIVQAGGSLRLSCAASGRTFAGNAMGWYRQAPGKERELVAAISQGGGSTYYADSVKGRFTISRDNAKNTVYLQMNSLKPEDTAVYYCAAEIPRRWASFATLWYDYWGQGTQVTVSS,low polyreactivity
17,QVQLVESGGGIVQAGGSLRLSCAASGRTFKRYAMGWYRPAPGKERELVAAITRSGGSTYYADSVKGRFTISRDNAKNTVYLQMNSLKPEDTAVYYCATRSYNNELEYWGQGTQVTVSS,high polyreactivity
18,QVQLVESGGGIVQAGGSLRLSCAASGRTFKYYAMGWYRQAPGKERELVAAITSTGGSTYYADSVKGRFTISRDNAKNTVYLQMNSLKPEDTAVYYCNRYTQYRDRSDNHWGQGTQVTVSS,high polyreactivity
19,QVQLVESGGGIVQAGGSLRLSCAASGRTFQFYAMGWYRQEPGKERELVASITWSPVRTYYADSVKGRFTNSRDNAKNTVYLQMNSLKQEDTAVYSCAIDWDYRLMDYWGQGTQVTVSS,low polyreactivity
20,QVQLVESGGGIVQAGGSLRLSCAASGRTFRGNAMGWYRQAPGKERELVAAIRYRGGSTYYADSVKGRFTISRDNAKNTVYLQMNSLKPEDTAVYDCARRYTVHTQHYDYWGQGTEVTVSS,high polyreactivity
21,QVQLVESGGGIVQAGGSLRLSCAASGRTFRWNVMGCYRPAPGKERELVATISRRSGSTNYADSVKGRFTISRDNAKNTVYLQINSLKPEDTALYYCAVVIVRALVYSGDYWGQGTQVSVSS,low polyreactivity
22,QVQLVESGGGIVQAGGSLRLSCAASGRTLPEYAMGWYIQEPGKERELVAAITSSSGSTYYADSVKVRFTISRDNAKNTVYLQMNSLIPEDTAVYYCAAESESGYHDYDYWGQGTQVTVSS,low polyreactivity

row,Sequence,polyreactivity (PSR sort gate)
1,QVQLVESGGGIVQAGGSLRLSCAASGRTYYYYAMGWYRQAPGKETELVASISWSGGSTYYADSVKGRFTISRDNAKNTVYLQMNSLKPEDTAVYYCNAQYHTYRWLYAVYLSGDYWGQGTQVTVSS,low polyreactivity
2,QVQLVESGGGIVQAGGSLRLSCAASGRVFTYYAMGWYRQAPGKERELVAAISSGGNTYYADSVKGRFTISRDNAKNTVFLQMNSLKPEDTAVYYCAAAGRPRYESNYWGQGTQVSVSS,high polyreactivity
3,QVQLVESGGGIVQAGGSLRLSCAASGSIFEPNAMGWYRQAPGQEREFVAAISGSGGSTYYADSVKGRFTSSRDNAKNTVYLQRNSLKPEDTAVYYCNALYLRTTPQDYDYWGQGTQVTVSS,high polyreactivity
4,QVQLVESGGGIVQAGGSLRLSCAASGSIFGANAMVWYRQAPGKERELVAAISRRGGSTYYADSVKGRFTISRDNAKNTVYLQMNSLKPEDSAVYYCNTYPQSLGVKYGYWGQGTQVTVSS,high polyreactivity
5,QVQLVESGGGIVQAGGSLRLSCAASGSIFGVYAMGWYRQAPGKERELVAAISSSGGRTYYADSVKGRFTISRDNAKNTVYLQMISLKPEDTAVYYCAAVPWRRSTRYDYWGQGTLVTVSS,high polyreactivity
6,QVQLVESGGGIVQAGGSLRLSCAASGSIFSKYAMGWYRQAPGKERELVATISSSVGSTYYADSVKGRFTISRDNAKNTVYLQMNSLKPEDTAVYYCAARPDYEYGSHYRGGYWGQGTQVSVSS,low polyreactivity
7,QVQLVESGGGIVQAGGSLRLSCAASGSIFSYNAMVWSRQAPGKQREFVAAIDGSDGSTYYADSVKGRFTISRDNAKNTVYLQMYSLKPEDTAVYSCAATDYDTYRSSWYDYWGQGTQVTVSS,low polyreactivity
8,QVQLVESGGGIVQAGGSLRLSCAASGSIFTGYAMGWYRQAPGKERQLVAAISWRGGGTYYADSVKGRFTISRDNAKNTVYLQMNSLKPEDTAVYYCAAVTKFGQYAPGSKGYGYWGQGTQVTVSS,low polyreactivity
9,QVQLVESGGGIVQAGGSLRLSCAASGSIFWVNVMGWYRQAPGKEREFVAAITRSGGSTYYADSVKGRFTISRDNAKNTVYLQMKSLKPEDTAVYYCNRRGRRGYDYWGQGTQVTVSS,high polyreactivity
10,QVQLVESGGGIVQAGGSLRLSCAASGSIFYHNAMGWYRQAPGKERELVAAITGSGGSTYYADSVKGRFTISRDNAKNTVYLQMNSLKPEDTAVYYCAADGYTKWWISWGYDYWGQGTQVTVSS,low polyreactivity
11,QVQLVESGGGIVQAGGSLRLSCAASGSSFWRNTMGWYRQAPGKERELVAGISSTGTSTYYADSVKGRFTISRDNAKNTVYLQMNSLKPEDTAVYYCAAAYRNRKYDYWGQGTQVTVSS,high polyreactivity
12,QVQLVESGGGIVQAGGSLRLSCAASGSTFFSNTMGWYRQAPGKERELVAAITSRGGRTYYADSVKGRFTISRDNAKNTVYLQMNSLKPEDSAVYYCADRFVLHGVYLKFYWGQGTQVTVSS,high polyreactivity
13,QVQLVESGGGIVQAGGSLRLSCAASGSTFGAYPMAWYRQAPGTERELVAVITRTGSTYADSVKGRFTISRDNAKNTVYLQMNSLKPVDTAVYYCNADYYVSRLYDYQVYSYRYDYWGQGTKVTVSS,high polyreactivity
14,QVQLVESGGGIVQAGGSLRLSCAASGSTFGWYAMGWYRPAPGKERELVAAISTSGNTYYADSVKGRFTISRDNAKNTVYLQLNSLKPEDTAVYYCAKYVNPDHDYWGQGTQVTVSS,low polyreactivity
15,QVQLVESGGGIVQAGGSLRLSCAASGSTFSYNAMGWYRQAPGKERELVAAISRGGITNYADSVKGRFTISRDNAKNTVYLQMNSLKPEDTAVYYCNAGYLGGPSYEYWGQGTQVTVSS,low polyreactivity
16,QVQLVESGGGIVQAGGSLRLSCAASGSTFVGNAMGWSRQAPGKERELVAAISRTGGSTYYADSVKGRFTISRDNEKNTVYLQMNSLIPEDSAVYYCNAYTRYSSRRGIGDSWGQGTQVTVSS,high polyreactivity
17,QVQLVESGGGIVQAGGSLRLSCAASGSTFVIYTMGWYRPAPGKERELVAAISWSGGITRYADSVKGRFTISRDNAKNTVYLQMNSLKPEDSAVYYCNASQWPSRFDYWGQGTQVTVSS,low polyreactivity
18,QVQLVESGGGIVQAGGSLRLSCAASGSTFYSYAMGFYRQAPGKERELVAAISWDGGRTYYADSVKGRFTISRDNAKNTVYLQMNSLKPEDTAVYYCAAAYPTYRHYYWGQGTQVTVSS,low polyreactivity
19,QVQLVESGGGIVQAGGSLRLSCAASGSTIDHYTMGWYSQAPGKERELVAAINRIGDSTYYADSVKGRFTISRDNAKNTVYLQMYSVNPEDTAVYYCAARHVPRFKNYGYWGQGTQVTVSS,high polyreactivity
20,QVQLVESGGGIVQAGGSLRLSCAASGSTIGGYAMGWYRQAPGKERELVAAIRRSGDSTYYADSVKGRFTISRDNAKNTVYLQMNSLKPEDTAVYYCNTDRTHSYQYGGYDYWGQGTQVTVSS,low polyreactivity
21,QVQLVESGGGIVQAGGSLRLSCAASGSTIRYYAMGWYRQAPGKERELVAAITYSGTRTYYADSVKGRFTISRDNAKTTVYLQMNSLKPEDTAVYYCNAVAKHRGVGIYTPYDYWGQGTQVTVSS,high polyreactivity
